1 protein from patent US20040005688 can be followed below.

The target of series [1] is T1, GST-DM5 (GST fusion of the 36 amino acid DM5 segment of Dsh, amino acids 214-249).
T1 chain: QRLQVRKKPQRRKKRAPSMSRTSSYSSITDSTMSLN

Series [2] concerns the target T2, Dishevelled (Dsh) protein, endogenous, from Drosophila embryos and Clone-8 cells.
T2 chain: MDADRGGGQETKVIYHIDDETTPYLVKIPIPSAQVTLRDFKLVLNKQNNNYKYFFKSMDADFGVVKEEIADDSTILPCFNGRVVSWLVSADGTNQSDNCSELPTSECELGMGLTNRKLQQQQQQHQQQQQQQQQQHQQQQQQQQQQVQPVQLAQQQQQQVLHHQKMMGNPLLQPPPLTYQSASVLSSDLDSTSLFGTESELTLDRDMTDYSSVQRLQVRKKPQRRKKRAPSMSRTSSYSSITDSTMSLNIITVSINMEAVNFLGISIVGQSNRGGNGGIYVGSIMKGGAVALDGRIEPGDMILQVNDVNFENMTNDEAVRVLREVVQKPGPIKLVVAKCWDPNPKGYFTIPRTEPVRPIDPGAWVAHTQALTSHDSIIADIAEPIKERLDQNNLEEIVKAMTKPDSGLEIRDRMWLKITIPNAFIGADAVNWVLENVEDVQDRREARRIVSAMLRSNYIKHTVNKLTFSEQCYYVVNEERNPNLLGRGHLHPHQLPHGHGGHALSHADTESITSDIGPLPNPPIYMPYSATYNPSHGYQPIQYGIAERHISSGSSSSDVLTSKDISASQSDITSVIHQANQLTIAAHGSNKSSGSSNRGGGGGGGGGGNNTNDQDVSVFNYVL

B1: Dishevelled Associated Kinase (DAK), endogenous kinase activity from Drosophila embryo and Clone-8 cell lysates (protein)
chain: MSTAMRTTLQSVPEALPADSVSNGTASNVAAPAAPVSSATNAVPPLAAVSSTTATYATNSISTSSHSVKDQQQQQQQQQHDSANANIVSLPPTTTPVANTNTMMPIVTSSNSATSNSTAATPTPASGAAATGGVGSVSQGPATVSASAANTNHSHQHSHQHHHHVANNMTTDGARLSSNNSAVVASSAINHHHHHTPGSGVAPTVNKNVLSTHSAHPSAIKQRTSSAKGSPNMQMRSSAPMRWRATEEHIGKYKLIKTIGKGNFAKVKLAKHLPTGKEVAIKIIDKTQLNPGSLQKLFREVRIMKMLDHPNIVKLFQVIETEKTLYLIMEYASGGEVFDYLVLHGRMKEKEARVKFRQIVSAVQYCHQKRIIHRDLKAENLLLDSELNIKIADFGFSNEFTPGSKLDTFCGSPPYAAPELFQGKKYDGPEVDVWSLGVILYTLVSGSLPFDGSTLRELRERVLRGKYRIPFYMSTDCENLLRKFLVLNPAKRASLETIMGDKWMNMGFEEDELKPYIEPKADLADPKRIEALVAMGYNRSEIEASLSQVRYDDVFATYLLLGRKSTDPESDGSRSGSSLSLRNISGNDAGANAGSASVQSPTHRGVHRSISASSTKPSRRASSGAETLRVGPTNAAATVAAATGAVGAVNPSNNYNAAGSAADRASVGSNFKRQNTIDSATIKENTARLAAQNQRPASATQKMLTTADTTLNSPAKPRTATKYDPTNGNRTVSGTSGIIPRRSTTLYEKTSSTEKTNVIPAETKMASAVKSSRHFPRNVPSRSTFHSGQTRARNNTALEYSGTSGASGDSSHPGRMSFFSKLSSRFSKRPNQ
In the case of B1, the in-gel kinase assay result in series [1] is “A polypeptide of 110 kDa appeared to account for the major DAK activity and two polypeptides of approximately 125 and 64 kDa appeared to represent minor activity”. The “in vitro kinase assay of Dsh immunoprecipitates” value in series [2] is reported as “Immunoprecipitated Dsh was phosphorylated in this assay”.
